Test results taken from PMC10011572 (Nature Communications, 2023).
Blank lines part the entries; values can stand above or below the molecule they belong to.

Columns and labels:
[1] = target: zanidatamab precursor (human); assay: SPR; zani precursor captured on immobilised goat anti-human Fc (CM5, Biacore T200), HER2 ECD 3.75-60 nM flowed; single-cycle, 1:1 Langmuir fit; apparent; capture/MW 1.008415548 RU/kDa
[2] = target: zanidatamab precursor (human); assay: SPR; zani precursor captured on immobilised goat anti-human Fc (CM5, Biacore T200), HER2 ECD 3.75-60 nM flowed; single-cycle, 1:1 Langmuir fit; apparent; capture/MW 2.483423369 RU/kDa
[3] = target: zanidatamab precursor (human); assay: SPR; zani precursor captured on immobilised goat anti-human Fc (CM5, Biacore T200), HER2 ECD 3.75-60 nM flowed; single-cycle, 1:1 Langmuir fit; apparent; capture/MW 0.164867939 RU/kDa
[4] = target: zanidatamab (human); assay: SPR; zani captured on immobilised goat anti-human Fc (CM5, Biacore T200), HER2 ECD 3.75-60 nM flowed; single-cycle, 1:1 Langmuir fit; apparent; capture/MW 0.62396698 RU/kDa
[5] = target: zanidatamab precursor (human); assay: SPR; zani precursor captured on immobilised goat anti-human Fc (CM5, Biacore T200), HER2 ECD 3.75-60 nM flowed; single-cycle, 1:1 Langmuir fit; apparent; capture/MW 4.911623982 RU/kDa
[6] = target: zanidatamab precursor (human); assay: SPR; zani precursor captured on immobilised goat anti-human Fc (CM5, Biacore T200), HER2 ECD 3.75-60 nM flowed; single-cycle, 1:1 Langmuir fit; apparent; capture/MW 0.423374464 RU/kDa
[7] = target: zanidatamab precursor (human); assay: SPR; zani precursor captured on immobilised goat anti-human Fc (CM5, Biacore T200), HER2 ECD 3.75-60 nM flowed; single-cycle, 1:1 Langmuir fit; apparent; capture/MW 3.104479294 RU/kDa
[8] = target: zanidatamab (human); assay: SPR; zani captured on immobilised goat anti-human Fc (CM5, Biacore T200), HER2 ECD 3.75-60 nM flowed; single-cycle, 1:1 Langmuir fit; apparent; capture/MW 2.080156929 RU/kDa
[9] = target: zanidatamab precursor (human); assay: SPR; zani precursor captured on immobilised goat anti-human Fc (CM5, Biacore T200), HER2 ECD 3.75-60 nM flowed; single-cycle, 1:1 Langmuir fit; apparent; capture/MW 0.083234299 RU/kDa
[10] = target: zanidatamab (human); assay: SPR; zani captured on immobilised goat anti-human Fc (CM5, Biacore T200), HER2 ECD 3.75-60 nM flowed; single-cycle, 1:1 Langmuir fit; apparent; capture/MW 0.484595665 RU/kDa
[11] = target: zanidatamab (human); assay: SPR; zani captured on immobilised goat anti-human Fc (CM5, Biacore T200), HER2 ECD 3.75-60 nM flowed; single-cycle, 1:1 Langmuir fit; apparent; capture/MW 1.217496547 RU/kDa
[12] = target: zanidatamab (human); assay: SPR; zani captured on immobilised goat anti-human Fc (CM5, Biacore T200), HER2 ECD 3.75-60 nM flowed; single-cycle, 1:1 Langmuir fit; apparent; capture/MW 0.273135738 RU/kDa
[13] = target: zanidatamab precursor (human); assay: SPR; zani precursor captured on immobilised goat anti-human Fc (CM5, Biacore T200), HER2 ECD 3.75-60 nM flowed; single-cycle, 1:1 Langmuir fit; apparent; capture/MW 0.555428881 RU/kDa
[14] = target: zanidatamab precursor (human); assay: SPR; zani precursor captured on immobilised goat anti-human Fc (CM5, Biacore T200), HER2 ECD 3.75-60 nM flowed; single-cycle, 1:1 Langmuir fit; apparent; capture/MW 2.11927331 RU/kDa
[15] = target: zanidatamab (human); assay: SPR; zani captured on immobilised goat anti-human Fc (CM5, Biacore T200), HER2 ECD 3.75-60 nM flowed; single-cycle, 1:1 Langmuir fit; apparent; capture/MW 1.306405834 RU/kDa
[16] = target: zanidatamab precursor (human); assay: SPR; zani precursor captured on immobilised goat anti-human Fc (CM5, Biacore T200), HER2 ECD 3.75-60 nM flowed; single-cycle, 1:1 Langmuir fit; apparent; capture/MW 1.970411967 RU/kDa
[17] = target: zanidatamab precursor (human); assay: SPR; zani precursor captured on immobilised goat anti-human Fc (CM5, Biacore T200), HER2 ECD 3.75-60 nM flowed; single-cycle, 1:1 Langmuir fit; apparent; capture/MW 1.154875901 RU/kDa
[18] = target: zanidatamab precursor (human); assay: SPR; zani precursor captured on immobilised goat anti-human Fc (CM5, Biacore T200), HER2 ECD 3.75-60 nM flowed; single-cycle, 1:1 Langmuir fit; apparent; capture/MW 4.096087916 RU/kDa
[19] = target: zanidatamab (human); assay: SPR; zani captured on immobilised goat anti-human Fc (CM5, Biacore T200), HER2 ECD 3.75-60 nM flowed; single-cycle, 1:1 Langmuir fit; apparent; capture/MW 2.37652122 RU/kDa
[20] = target: Zanidatamab (human); assay: AUC; sedimentation velocity, HER2 ECD and antibody equimolar (1x), 1 mg/mL total protein in DPBS, 20 °C, c(s) model
[21] = target: zanidatamab precursor (human); assay: SPR; zani precursor captured on immobilised goat anti-human Fc (CM5, Biacore T200), HER2 ECD 3.75-60 nM flowed; single-cycle, 1:1 Langmuir fit; apparent; capture/MW 0.356947091 RU/kDa
[22] = target: zanidatamab precursor (human); assay: SPR; zani precursor captured on immobilised goat anti-human Fc (CM5, Biacore T200), HER2 ECD 3.75-60 nM flowed; single-cycle, 1:1 Langmuir fit; apparent; capture/MW 0.571435477 RU/kDa
[23] = target: zanidatamab (human); assay: SPR; zani captured on immobilised goat anti-human Fc (CM5, Biacore T200), HER2 ECD 3.75-60 nM flowed; single-cycle, 1:1 Langmuir fit; apparent; capture/MW 0.793775709 RU/kDa
[24] = target: zanidatamab precursor (human); assay: SPR; zani precursor captured on immobilised goat anti-human Fc (CM5, Biacore T200), HER2 ECD 3.75-60 nM flowed; single-cycle, 1:1 Langmuir fit; apparent; capture/MW 0.365750719 RU/kDa
[25] = target: zanidatamab precursor (human); assay: SPR; zani precursor captured on immobilised goat anti-human Fc (CM5, Biacore T200), HER2 ECD 3.75-60 nM flowed; single-cycle, 1:1 Langmuir fit; apparent; capture/MW 0.312928952 RU/kDa
[26] = target: zanidatamab precursor (human); assay: SPR; zani precursor captured on immobilised goat anti-human Fc (CM5, Biacore T200), HER2 ECD 3.75-60 nM flowed; single-cycle, 1:1 Langmuir fit; apparent; capture/MW 3.817573146 RU/kDa
[27] = target: zanidatamab precursor (human); assay: SPR; zani precursor captured on immobilised goat anti-human Fc (CM5, Biacore T200), HER2 ECD 3.75-60 nM flowed; single-cycle, 1:1 Langmuir fit; apparent; capture/MW 2.899594865 RU/kDa
[28] = target: zanidatamab precursor (human); assay: SPR; zani precursor captured on immobilised goat anti-human Fc (CM5, Biacore T200), HER2 ECD 3.75-60 nM flowed; single-cycle, 1:1 Langmuir fit; apparent; capture/MW 0.703489894 RU/kDa
[29] = target: zanidatamab precursor (human); assay: SPR; zani precursor captured on immobilised goat anti-human Fc (CM5, Biacore T200), HER2 ECD 3.75-60 nM flowed; single-cycle, 1:1 Langmuir fit; apparent; capture/MW 2.00002417 RU/kDa
[30] = target: zanidatamab precursor (human); assay: SPR; zani precursor captured on immobilised goat anti-human Fc (CM5, Biacore T200), HER2 ECD 3.75-60 nM flowed; single-cycle, 1:1 Langmuir fit; apparent; capture/MW 0.790725842 RU/kDa
[31] = target: zanidatamab (human); assay: SPR; zani captured on immobilised goat anti-human Fc (CM5, Biacore T200), HER2 ECD 3.75-60 nM flowed; single-cycle, 1:1 Langmuir fit; apparent; capture/MW 0.856252506 RU/kDa
[32] = target: zanidatamab precursor (human); assay: SPR; zani precursor captured on immobilised goat anti-human Fc (CM5, Biacore T200), HER2 ECD 3.75-60 nM flowed; single-cycle, 1:1 Langmuir fit; apparent; capture/MW 4.555477221 RU/kDa
[33] = target: Zanidatamab (human); assay: SPR; Biacore T200; goat anti-human Fc polyclonal Ab amine-coupled to about 2000 RU on a CM5 chip captures the antibody; increasing concentrations of HER2 ECD injected; single-cycle kinetics, 1:1 binding model; KD of zanidatamab called apparent
[34] = target: zanidatamab precursor (human); assay: SPR; zani precursor captured on immobilised goat anti-human Fc (CM5, Biacore T200), HER2 ECD 3.75-60 nM flowed; single-cycle, 1:1 Langmuir fit; apparent; capture/MW 1.267722403 RU/kDa
[35] = target: T1, Recombinant human HER2 ECD (Homo sapiens, UniProt P04626); assay: SPR; Biacore T200; goat anti-human Fc polyclonal Ab amine-coupled to about 2000 RU on a CM5 chip captures the antibody; increasing concentrations of HER2 ECD injected; single-cycle kinetics, 1:1 binding model; KD of zanidatamab called apparent; details: both partners purified
T1 construct: human epidermal growth factor receptor 2 (HER2), extracellular domain, recombinant; printed mass 72 kDa; The supplier is named for the SPR only; source: bought: Acro Inc

Kd [1]: 0.49 nM
Kd [2]: 0.0931 nM
Kd [3]: 0.879 nM
Kd [4]: 0.169 nM
Kd [5]: 0.0358 nM
Kd [6]: 2.02 nM
Kd [7]: 0.311 nM
Kd [8]: 0.0989 nM
Kd [9]: 0.89 nM
Kd [10]: 0.175 nM
Kd [11]: 0.0932 nM
Kd [12]: 0.149 nM
Kd [13]: 0.679 nM
Kd [14]: 0.475 nM
Kd [15]: 0.0913 nM
Kd [16]: 0.46 nM
Kd [17]: 0.743 nM
Kd [18]: 0.119 nM
Kd [19]: 0.0801 nM
percent of the total peak area in multimeric complexes [20]: 95%
Kd [21]: 0.927 nM
Kd [22]: 0.687 nM
Kd [23]: 0.0997 nM
Kd [24]: 1.12 nM
Kd [25]: 0.663 nM
Kd [26]: 0.136 nM
Kd [27]: 0.318 nM
Kd [28]: 0.992 nM
Kd [29]: 0.152 nM
Kd [30]: 0.992 nM
Kd [31]: 0.174 nM
Kd [32]: 0.0468 nM
Kd [33]: 0.74 nM
Kd [34]: 0.654 nM
Molecule: Recombinant human HER2 ECD (from UniProt P04626 23-652) (domain or fragment)

Kd [35]: 1.7 nM
B1: Monovalent one-armed Ab (OAA) with the affinity-improved anti-HER2-ECD2 Fab (antibody, V domains shown)
VH: EVQLVESGGGLVQPGGSLRLSCAASGFTFADYTMDWVRQAPGKGLEWVGDVNPNSGGSIYNQRFKGRFTFSVDRSKNTLYLQMNSLRAEDTAVYYCARNLGPSFYFDYWGQGTLVTVSS
VL: DIQMTQSPSSLSASVGDRVTITCKASQDVSIGVAWYQQKPGKAPKLLIYSASYRYTGVPSRFSGSGSGTDFTLTISSLQPEDFATYYCQQYYIYPATFGQGTKVEIK
notes: as the light chain of m3; also called one variant; copies: + +
